{
  "source": "patent US20070015260A1",
  "about": "“Synthesis of synthons for the manufacture of bioactive compounds” (DIVERSA CORPORATION, priority 2002, published 2007)",
  "molecules": {"B1": {"name": "S238D: DERA variant, phosphate binding pocket residue Ser238 replaced with Asp (protein, UniProt P0A6L0 1-259, looked up, variant S238D)", "Deoxyribose-phosphate aldolase": "MTDLKASSLRALKLMDLTTLNDDDTDEKVIALCHQAKTPVGNTAAICIYPRFIPIARKTLKEQGTPEIRIATVTNFPHGNDDIDIALAETRAAIAYGADEVDVVFPYRALMAGNEQVGFDLVKACKEACAAANVLLKVIIETGELKDEALIRKASEISIKAGADFIKTSTGKVAVNATPESARIMMEVIRDMGVEKTVGFKPAGGVRTAEDAQKYLAIADELFGADWADARHYRFGADSLLASLLKALGHGDGKSASSY"}, "B2": {"name": "R207E: DERA variant, basic phosphate binding pocket residue Arg207 mutated to Glu (protein, UniProt P0A6L0 1-259, looked up, variant R207E)", "Deoxyribose-phosphate aldolase": "B1 Deoxyribose-phosphate aldolase with R207E, D238S"}, "B3": {"name": "K172E: DERA variant, basic phosphate binding pocket residue Lys172 mutated to Glu (protein, UniProt P0A6L0 1-259, looked up, variant K172E)", "Deoxyribose-phosphate aldolase": "B1 Deoxyribose-phosphate aldolase with K172E, D238S"}, "B4": {"name": "G205E: DERA variant, neutral phosphate binding pocket residue Gly205 replaced with Glu (protein, UniProt P0A6L0 1-259, looked up, variant G205E)", "Deoxyribose-phosphate aldolase": "B1 Deoxyribose-phosphate aldolase with G205E, D238S"}},
  "key": {"[1]": {"test_system": "E. coli SELECT (Δace, adhC, DE3) cells", "assay": "In vivo selection: growth of E. coli SELECT with supplementation substrates", "type": "cell-based", "conditions": "for toxicity of supplementation substrate to SELECT cells: together with sodium acetate", "description": "SELECT was transformed with the DERA expressing plasmid, pET30a WT DERA, and growth conditions were then optimized for the expression of soluble active DERA enzyme. Selection conditions were further optimized using DERA's natural substrate DRP as a supplementation substrate and FIG. 6 illustrates that viable selection conditions are achieved. In the absence of 2-carbon supplementation, neither SELECT cells transformed with a plasmid which expresses WT DERA nor those transformed with a nonexpressing plasmid (−) grow. By contrast, both grow in the presence of sodium acetate supplementation. […] Proof of principle for this selection system arises from the fact that only E. coli SELECT cells transformed with plasmid that expresses WT DERA grow when DRP is used as the supplementation substrate. Furthermore, that the endogenous genomic E. coli DERA is not expressed at a sufficiently high level to affect the use of DRP as a 2-carbon source by virtue of its metabolism to acetaldehyde and D-glyceraldehyde-3-phosphate was established. […] A novel activity-based selection system is thus established and can be used to select for a DERA variant which can catalyze the retro-aldol reaction of DR and other nonphosphorylated substrates. Work is in progress to identify novel DERA variants for this purpose.\nPlasmids were transformed into electrocompetent SELECT cells and subjected to 1 h outgrowth at 37° C. in 1 mL SOC medium supplemented with 0.1% sodium acetate. The cells were then collected by centrifugation at 4° C., 3000 rpm for 10 min. The supernatant was discarded and the pellet gently resuspended M9 0.2% glucose. This was repeated twice. The cells were then diluted to OD600=0.001 in M9 0.2% glucose, 0.01 mM IPTG, 10 μg/mL kanamycin. The appropriation supplementation substrate (sodium acetate, D-2-deoxyribose-phosphate or D-2-deoxyribose) was then added at 0.1% w/w concentration. After an appropriate selection time at 37° C., typically 24-72 h, the cells were harvested by centrifugation and their amplified plasmids isolated."}, "[2]": {"assay": "DERA cleavage (retroaldol) coupled assay, natural substrate DRP", "type": "biochemical", "conditions": "for Km / kcat: retro-aldol, pH 7.5, 25° C.; for activity / kcat/KM with the natural substrate DRP, in words: compared to WT", "experimental": "(§1) Enzyme activity was monitored by the standard coupled assay using α-Glycerophosphate Dehydrogenase (α-GPD, EC 1.1.18), and Triosephosphate Isomerase (TPI, EC 5.3.1.1). Enzyme activity was assayed in the retro-aldol, decomposition direction with 0.01-4 mM D-2-deoxyribose-5-phosphate (DRP) or 5 to 200 mM D-2-deoxyribose in 50 mM triethanolamine hydrochloride pH 7.5 buffer using a GPD/TPI (1.6 U/mL Sigma G-1881) coupled enzyme system at 25° C. in the presence of 0.3 mM NADH by observing the rate of decrease of NADH concentration as monitored at 340 nm, ε=6220 M^−cm^−1."}, "[3]": {"assay": "Sequential asymmetric aldol reaction with azidoaldehyde acceptor", "type": "biochemical", "conditions": "3-azidopropinaldehyde acceptor, two molecules of acetaldehyde as donor"}, "[4]": {"assay": "DERA cleavage (retroaldol) coupled assay, unnatural substrate DR", "type": "biochemical", "conditions": "for ratio of specificity constants {kcat/KM (DR)}/{kcat/KM (DRP)}: DR compared to DRP, read; for activity / specificity with DR, in words: compared to WT; for Km / kcat: retro-aldol, pH 7.5, 25° C.", "experimental": "as §1"}, "[5]": {"assay": "DERA addition (aldol) assay", "type": "biochemical", "conditions": "spectrophotometric coupled-assay of substrate consumption and TLC of product formation", "experimental": "DERA enzyme activity was assayed in the aldol synthesis direction by determining the concentration of acetaldehyde remaining by a coupled endpoint assay with yeast alcohol dehydrogenase (YADH, EC 1.1.1.1). 200 mM acetaldehyde, which had been freshly distilled under anerobic conditions, 200 mM (±)-glyceraldehyde and 0.2 mg/mL DERA in 50 mM triethanolamine, pH 7.5 buffer which had been deoxygenated with N2, were incubated under an N2 atmosphere at 22° C. At various time points, 50 μL aliquots were withdrawn and quenched into 15 μL of 60% perchloric acid. After a 5 min incubation on ice, 890 μL 1 M triethanolamine, pH 7.5 buffer and 45 μL 4 N NaOH were added to neutralize the solution. 20 μL of this solution was then assayed for remaining acetaldehyde. The amount of acetaldehyde remaining was equated to moles NADH consumed, as determined in triethanolamine pH 7.5 buffer containing 0.3 mM NADH, 20 μL the above quenched reaction aliquot and 0.05 mg/mL YADH. DR product formation was also confirmed by silica gel TLC with ethylacetate running solvent and p-anisaldehyde developing stain. Rf: glyceraldehyde=0.04 (stains brown) Rf:2-deoxyribose=0.1 (stains blue)."}, "[6]": {"assay": "DERA catalysis with 2-methyl-3-hydroxypropinaldehyde as acceptor", "type": "biochemical", "conditions": "L-2-methyl derivative as substrate"}},
  "note": "Changes are numbered by the printed parent chain. Names may count otherwise. “Also recorded” adds a separate entry of the source.",
  "data": [
    {"molecule": "O=CC[C@@H](O)[C@H](O)CO", "note": "[DR, D-2-deoxyribose]", "values": [
      {"measurement": "toxicity of supplementation substrate to SELECT cells", "setting": "[1]", "value": "neither of these supplementation substrates nor their metabolic products are toxic to the cells"}
    ]},
    {"molecule": "O=CC[C@@H](O)[C@H](O)COP(=O)(O)O", "note": "[DRP, D-2-deoxyribose-5-phosphate]", "values": [
      {"measurement": "toxicity of supplementation substrate to SELECT cells", "setting": "[1]", "value": "neither of these supplementation substrates nor their metabolic products are toxic to the cells"}
    ]},
    {"molecule": "WT: wild-type E. coli 2-deoxyribose-5-phosphate aldolase (DERA, EC 4.1.2.4)", "values": [
      {"measurement": "Km", "setting": "[2]", "value": "0.64 ± 0.01", "unit": "mM"},
      {"measurement": "kcat", "setting": "[2]", "value": "68 ± 1", "unit": "s⁻¹"},
      {"measurement": "acceptance of the azidoaldehyde as substrate", "setting": "[3]", "value": "not a substrate; also recorded: inactive"},
      {"measurement": "ratio of specificity constants {kcat/KM (DR)}/{kcat/KM (DRP)}", "setting": "[4]", "value": "1.9 × 10^−5"},
      {"measurement": "activity / specificity with DR, in words", "setting": "[4]; substrate DR", "value": "cannot accept the unnatural substrate DR efficiently"},
      {"measurement": "Km", "setting": "[4]; substrate DR", "value": "57 ± 7", "unit": "mM"},
      {"measurement": "kcat", "setting": "[4]; substrate DR", "value": "0.107 ± 0.005", "unit": "s⁻¹"},
      {"measurement": "relative activity of the DERA variants in the aldol direction", "setting": "[5]", "value": "S238˜DS239W>WT>R207E>K172E>G205E"},
      {"measurement": "growth of SELECT cells transformed with expressing plasmid", "setting": "[1]; DRP as the supplementation substrate", "value": "grow"}
    ]},
    {"molecule": "B1", "values": [
      {"measurement": "activity / kcat/KM with the natural substrate DRP, in words", "setting": "[2]", "value": "substantially decreased"},
      {"measurement": "Km", "setting": "[2]", "value": "61 ± 11", "unit": "mM"},
      {"measurement": "kcat", "setting": "[2]", "value": "0.58 ± 0.05", "unit": "s⁻¹"},
      {"measurement": "improvement in kcat/KM compared to that of the wild type", "setting": "[6]", "value": 5, "unit": "fold"},
      {"measurement": "acceptance of the azidoaldehyde as substrate", "setting": "[3]", "value": "catalyzes a novel sequential aldol reaction; also recorded: accepts 3-azidopropionaldehyde as a new substrate"},
      {"measurement": "ratio of specificity constants {kcat/KM (DR)}/{kcat/KM (DRP)}", "setting": "[4]", "value": 0.13},
      {"measurement": "improvement in kcat/KM compared to WT-DERA", "setting": "[4]; substrate DR", "value": 2.5, "unit": "fold"},
      {"measurement": "Km", "setting": "[4]; substrate DR", "value": "39 ± 6", "unit": "mM"},
      {"measurement": "kcat", "setting": "[4]; substrate DR", "value": "0.21 ± 0.01", "unit": "s⁻¹"},
      {"measurement": "relative activity of the DERA variants in the aldol direction", "setting": "[5]", "value": "S238˜DS239W>WT>R207E>K172E>G205E"}
    ]},
    {"molecule": "B2", "values": [
      {"measurement": "ratio of specificity constants {kcat/KM (DR)}/{kcat/KM (DRP)}", "setting": "[4]", "value": 2.2},
      {"measurement": "activity / specificity with DR, in words", "setting": "[4]; substrate DR", "value": "virtually unchanged"},
      {"measurement": "Km", "setting": "[4]; substrate DR", "value": "33 ± 3", "unit": "mM"},
      {"measurement": "kcat", "setting": "[4]; substrate DR", "value": "0.064 ± 0.001", "unit": "s⁻¹"},
      {"measurement": "relative activity of the DERA variants in the aldol direction", "setting": "[5]", "value": "S238˜DS239W>WT>R207E>K172E>G205E"}
    ]},
    {"molecule": "B3", "values": [
      {"measurement": "ratio of specificity constants {kcat/KM (DR)}/{kcat/KM (DRP)}", "setting": "[4]", "value": 0.27},
      {"measurement": "decrease in kcat/KM", "setting": "[4]; substrate DR", "value": 5, "unit": "fold"},
      {"measurement": "Km", "setting": "[4]; substrate DR", "value": "63 ± 22", "unit": "mM"},
      {"measurement": "kcat", "setting": "[4]; substrate DR", "value": "0.022 ± 0.02", "unit": "s⁻¹"},
      {"measurement": "relative activity of the DERA variants in the aldol direction", "setting": "[5]", "value": "S238˜DS239W>WT>R207E>K172E>G205E"}
    ]},
    {"molecule": "B4", "values": [
      {"measurement": "activity / kcat/KM with the natural substrate DRP, in words", "setting": "[2]", "value": "virtually inactive"},
      {"measurement": "ratio of specificity constants {kcat/KM (DR)}/{kcat/KM (DRP)}", "setting": "[4]", "value": "3.1 × 10^−3"},
      {"measurement": "activity / specificity with DR, in words", "setting": "[4]; substrate DR", "value": "virtually inactive"},
      {"measurement": "relative activity of the DERA variants in the aldol direction", "setting": "[5]", "value": "S238˜DS239W>WT>R207E>K172E>G205E"}
    ]}
  ]
}
